# What was measured:
# [1] = target: Subtilisin-treated taxol-stabilized microtubules (C-terminal tubulin tails cleaved), labeled with Alexa Fluor 488 and biotin (bovine) (UniProt Q6B856); assay: widefield fluorescence microscopy of labeled protein on tethered microtubules; Alexa Fluor 488-labeled microtubules tethered to a coverslip by biotin-streptavidin; TMR-labeled LRRK^RCKW (6.25 nM–50 nM; 100 nM for the NaCl series) incubated 5 minutes in 20 mM Hepes pH 7.4, 80 mM NaCl, 0.5 mM MgCl2, 0.5 mM TCEP, 5% glycerol, 20 μM GDP; also increasing sodium chloride
# [2] = target: Taxol-stabilized microtubules from porcine brain tubulin (porcine) (UniProt P02550); assay: co-sedimentation; 200 nM LRRK^RCKW with various concentrations of taxol-stabilized microtubules, 10 minutes at room temperature, 20 mM Hepes pH 7.4, 110 mM NaCl (also 100 and 150 mM NaCl), 0.5 mM MgCl2, 0.5 mM TCEP, 5% glycerol, 20 μM GDP, 20 μM taxol; pelleted at 108,628 g; depletion from the supernatant on SYPRO-Red gels
# Chain of TMR-LRRK2^RCKW (LRRK2^RCKW randomly labeled with BODIPY TMR-X) (Q5S007 1327-2527): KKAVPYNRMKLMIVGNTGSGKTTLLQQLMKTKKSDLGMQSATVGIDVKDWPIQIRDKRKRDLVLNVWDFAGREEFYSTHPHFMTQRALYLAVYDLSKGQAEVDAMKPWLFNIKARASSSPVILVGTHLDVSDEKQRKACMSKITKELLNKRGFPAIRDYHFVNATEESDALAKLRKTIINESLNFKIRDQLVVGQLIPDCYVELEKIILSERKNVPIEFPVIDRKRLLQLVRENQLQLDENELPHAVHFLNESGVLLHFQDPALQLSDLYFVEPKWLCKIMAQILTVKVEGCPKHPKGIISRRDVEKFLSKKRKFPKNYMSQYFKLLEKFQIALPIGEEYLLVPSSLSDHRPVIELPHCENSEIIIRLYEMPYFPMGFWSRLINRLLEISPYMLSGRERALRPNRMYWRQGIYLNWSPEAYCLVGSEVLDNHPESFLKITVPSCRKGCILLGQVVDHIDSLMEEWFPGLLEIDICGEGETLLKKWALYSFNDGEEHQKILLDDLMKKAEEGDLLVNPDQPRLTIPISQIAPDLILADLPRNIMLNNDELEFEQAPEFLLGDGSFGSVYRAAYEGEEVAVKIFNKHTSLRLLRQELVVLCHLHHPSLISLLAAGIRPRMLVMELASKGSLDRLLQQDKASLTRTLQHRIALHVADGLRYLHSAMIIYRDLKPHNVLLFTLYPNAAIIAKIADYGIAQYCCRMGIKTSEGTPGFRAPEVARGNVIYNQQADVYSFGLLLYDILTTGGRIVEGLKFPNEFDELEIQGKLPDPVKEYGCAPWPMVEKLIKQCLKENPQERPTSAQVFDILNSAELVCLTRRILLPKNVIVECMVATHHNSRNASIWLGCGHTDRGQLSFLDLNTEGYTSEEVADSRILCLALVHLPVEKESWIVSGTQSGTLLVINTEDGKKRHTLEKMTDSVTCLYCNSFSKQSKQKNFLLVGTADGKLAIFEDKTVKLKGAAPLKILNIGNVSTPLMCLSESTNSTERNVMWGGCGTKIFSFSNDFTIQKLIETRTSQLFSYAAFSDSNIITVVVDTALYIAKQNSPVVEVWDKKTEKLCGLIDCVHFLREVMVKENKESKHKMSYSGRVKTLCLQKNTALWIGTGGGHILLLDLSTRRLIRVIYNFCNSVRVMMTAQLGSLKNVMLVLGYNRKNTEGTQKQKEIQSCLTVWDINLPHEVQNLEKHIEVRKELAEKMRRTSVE
# Chain of Subtilisin-treated taxol-stabilized microtubules (C-terminal tubulin tails cleaved), labeled with Alexa Fluor 488 and biotin (bovine) (Q6B856 whole entry, looked up): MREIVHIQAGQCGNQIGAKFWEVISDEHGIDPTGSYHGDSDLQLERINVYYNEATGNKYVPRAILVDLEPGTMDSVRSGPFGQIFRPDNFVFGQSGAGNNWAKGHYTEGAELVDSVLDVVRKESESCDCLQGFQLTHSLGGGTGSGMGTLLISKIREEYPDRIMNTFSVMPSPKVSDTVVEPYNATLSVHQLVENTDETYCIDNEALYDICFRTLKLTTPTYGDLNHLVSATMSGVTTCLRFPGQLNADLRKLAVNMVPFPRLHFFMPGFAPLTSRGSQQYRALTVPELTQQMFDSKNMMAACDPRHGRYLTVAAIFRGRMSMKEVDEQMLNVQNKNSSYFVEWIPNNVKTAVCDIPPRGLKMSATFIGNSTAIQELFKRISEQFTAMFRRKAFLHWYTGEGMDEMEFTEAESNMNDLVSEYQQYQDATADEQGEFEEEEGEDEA
decrease of microtubule binding against untreated microtubules [1] [%],reduction of pelleting with microtubules against WT LRRK2^RCKW [2] [%],Substance
50,–,TMR-LRRK2^RCKW (LRRK2^RCKW randomly labeled with BODIPY TMR-X) (from UniProt Q5S007 1327-2527) (domain or fragment)
–,50,LRRK2^RCKW-R1731D (from UniProt Q5S007 1327-2527) (domain or fragment)

# — article PMC9758056
